US20250025535A1, “A COMPOSITION COMPRISING NANOSIZED ACTIVE PHARMACEUTICAL INGREDIENT” (NANOFORM FINLAND OYJ, priority 2021, published 2025)

Assay: Sedimentation of insulin suspension in fish oil
Assay type: physicochemical
Conditions: 10 mg in 1 ml fish oil, room temperature, t=0, 30 min, 60 min, 24 h; compared with bulk insulin
Experimental: A: t=0 min; B: t=30 min; C: t=60 min; D: t=24 h.
Nanosized insulin or bulk insulin (10 mg, Sigma) was added to 1 ml of fish oil, mixed by vortexing and allowed to stand at room temperature.

With insulin [nanosized insulin] the “sedimentation in fish oil as a function of time” value was “significantly slower”.
